# Reference: publication doi:10.1101/2025.08.26.672322
# What was measured:
# Gephyrin P1 wt [1] = assay: SEC
# [2] = molecular target: LSβ, fusion protein of lumazine synthase and GlyR β-subunit ICD (pentameric GlyR model); assay: co-sedimentation
# Gephyrin Δ199-233 [3] = assay: SEC
# Gephyrin Δ199-233 [4] = assay: ITC
# Gephyrin P1 wt [5] = assay: ITC
substance,measurement,setting,value
Gephyrin P1 wt (natural protein),stoichiometry N,Gephyrin P1 wt [1],3
Gephyrin Δ199-233 (natural protein),"gephyrin in the pelleted fraction, fold of wt",[2],2 fold
same,stoichiometry N,Gephyrin Δ199-233 [3],3
GlyR β-subunit ICD peptide (domain or fragment),KD high-affinity site,Gephyrin Δ199-233 [4],50 nM
same,KD low-affinity site,Gephyrin Δ199-233 [4],1540 nM
same,KD high-affinity site,Gephyrin P1 wt [5],63 nM
same,KD low-affinity site,Gephyrin P1 wt [5],1830 nM
